{
  "source": "patent US20110300156A1",
  "about": "(Genmab, published 2011)",
  "key": {"[1]": {"molecular_target": "T1, TFECDHis (extracellular domain of tissue factor, amino acid 1-251, with C-terminal His tag) (human, UniProt P13726 33-251)", "T1 construct": "range 1-251; The stated range 1-251 starts at residue 1 of NP-001984; also called extracellular domain of TF", "experiment": "ELISA, coated TFECDHis, mean of 3", "outline": "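Plates coated overnight at +4° C with 0.5 μg/mL TFECDHis in PBS pH 7.4, blocked with 2% chicken serum. Serially diluted HuMabs bound 1 h at RT with shaking, detected with HRP anti-human IgG. Binding curves fitted by sigmoidal dose-response with variable slope; anti-KLH HuMab served as negative control.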"}, "[2]": {"molecular_target": "T2, human tissue factor (TF), membrane-bound on cells (human, UniProt P13726 33-295)", "T2 construct": "whole, on cells; also called cellular TF", "experiment": "FACS on AsPC-1 cells (~175.000 TF molecules/cell) [panel AsPC-1 cells]", "method": "(§1) Cells were resuspended in PBS (2×10⁶ cells/ml), put in 96-well V-bottom plates (50 μl/well). 50 μl of serially diluted HuMab in FACS buffer (PBS supplemented with 0.1% BSA and 0.02% Na-azide) was added to the cells and incubated for 30 minutes on ice. After washing three times with FACS buffer, 50 μl of phycoerythrin (PE)-conjugated goat anti-human IgGFc (Jackson ImmunoResearch), diluted 1:100 in FACS buffer, was added. After 30 minutes on ice (in the dark), cells were washed three times, and specific binding of the HuMabs was detected by flow cytometry on a FACSCalibur (BD Biosciences). HuMab-KLH was used as a negative control. Mouse anti-TF followed by PE-conjugated anti-mouse IgGFc was used as positive control. Binding curves were analyzed using non-linear regression (sigmoidal dose-response with variable slope) using GraphPad Prism V4.03 software (GraphPad Software, San Diego, Calif., USA).\n(§2) Binding of anti-TF HuMabs to membrane-bound TF on cell lines expressing different levels of TF was determined by FACS analysis, essentially as described supra. Mouse anti-TF antibody followed by PE-conjugated anti-mouse IgGFc was used as a positive control. Fluorescence was measured on a FACSCantoII. Binding curves were analyzed essentially as described supra, using GraphPad Prism 5 software. The amount of TF molecules on cell lines was determined by Qifi kit (Dako, Glostrup, Denmark), according to the manufacturer's instructions."}, "[3]": {"molecular_target": "T2, human tissue factor (TF), …", "experiment": "FACS on SK-OV-3 cells (~60.000 TF molecules/cell) [panel SK-OV-3 cells]", "method": "as §1\nas §2, with “Mouse anti-TF antibody followed by PE-conjugated anti-mouse IgGFc was used as a positive control.” left out"}, "[4]": {"molecular_target": "T3, murine tissue factor (TF) on transfected HEK293F cells (murine, UniProt P20352 29-294)", "T3 construct": "whole, on cells; also called murine TF; TFmm", "T3 sequence (looked up)": "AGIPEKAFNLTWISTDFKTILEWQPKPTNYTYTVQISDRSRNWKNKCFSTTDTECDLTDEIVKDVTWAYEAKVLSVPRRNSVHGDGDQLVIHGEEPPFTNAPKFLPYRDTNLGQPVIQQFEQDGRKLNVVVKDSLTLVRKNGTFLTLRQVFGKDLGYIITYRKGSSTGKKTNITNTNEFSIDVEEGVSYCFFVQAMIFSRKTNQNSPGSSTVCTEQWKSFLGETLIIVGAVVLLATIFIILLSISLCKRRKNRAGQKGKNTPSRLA", "experiment": "FACS on transfected HEK293F cells, 30 µg/mL antibody [panel M]"}, "[5]": {"molecular_target": "T1, TFECDHis (extracellular domain of …)", "experiment": "SPR avidity format: TFECDHis immobilized, bivalent HuMab as analyte (printed as avidity nM)", "method": "Antibody binding to TF was analyzed by surface plasmon resonance in a BIAcore 3000 (GE Healthcare). TFECDHis was used for the analysis. HuMab antibodies (500 resonance units) were immobilized on the CM-5 sensor chip according to the procedure recommended by the manufacturer. Briefly, after surface activation by EDC and NHS HuMab antibody was injected over the activated CM-5 surface in 10 mM sodium-acetate, pH ranging from 4.0 to 5.5 at 5 μl/min. followed by 1 M Ethanolamine for deactivation. Concentration series of TFECDHis in HBS-EP buffer were injected over the immobilized antibodies at a flow rate of 30 μl/min for 180 sec. Regeneration of the HuMab surface was performed by injection of 10 mM Glycine-HCl pH 2.0 or 10 mM sodium acetate pH 3.0. Kinetic analysis was performed using double reference subtraction and model 1:1 (langmuir) binding analysis.\nTF (TFECDHis) binding to TF-specific HuMabs was determined essentially as described above, with TFECDHis being immobilized on the CM-5 sensor chip (300 resonance units), and concentration series of Humab antibodies used for kinetic analysis. Kinetic analysis was performed using double reference subtraction and model 1:1 (langmuir) binding analysis."}, "[6]": {"molecular_target": "T3, murine tissue factor (TF) on …", "experiment": "FACS on transfected HEK293F cells, 30 µg/mL antibody [Figure 18; no figure label on the sheet]", "method": "as §1\nTo determine domains important for binding of anti-TF HuMabs to human TF, DNA shuffling was performed between human and murine TF. Shuffle constructs were prepared from DNA encoding human TF, by replacing human domains with murine domains and from DNA encoding murine TF by replacing murine domains with human domains."}},
  "data": [
    {"binder": "anti-TF HuMab 109 (antibody, V domains shown, Human monoclonal antibody from HuMab mice) VH: QVQLVESGGGVVQPGRSLRLSCPASGFTFSIYAMHWVRQAPGKGLEWVAVVSNDGYNKYYADSVKGRFTISRDNSKDTLYLQMNSLRAEDTAVYYCARDGQLGRGYFDYWGQGTLVTVSS VL: EIVLTQSPATLSLSPGERAILSCRASQSVSSYLAWYQQKPGQAPRLLIYDASNRATGIPARFSGSGSGTDFTLTISSLEPEDFAVYYCQQRSNWPLTFGGGTKVEIK", "values": [
      {"measurement": "EC50", "setting": "[1]", "result": 270, "unit": "pM"},
      {"measurement": "EC50 (read off the curve)", "setting": "[2]", "result": "~0.1", "unit": "µg/mL"},
      {"measurement": "EC50 (read off the curve)", "setting": "[3]", "result": "~0.04", "unit": "µg/mL"},
      {"measurement": "binding result", "setting": "[4]", "result": "no binding (tested: 30 µg/mL)"},
      {"measurement": "Kd", "setting": "[5]", "result": 10, "unit": "pM"}
    ]},
    {"binder": "anti-TF HuMab 013 (antibody, V domains shown, Human monoclonal antibody from HuMab mice; also called HuMab-TF-13) VH: EVQLVQSGAEVKKPGESLKISCKGSGYSFTSYWIGWVRQMPGKGLEWMGIIYPGDSDTRYSPSFQGQVTISADKSISTAYLQWSSLKASDTAMYYCARIHRGAGYSSSWPGAFDIWGQGTMVTVSS VL: DIQMTQSPSSLSASVGDRVTITCRASQGISRWLAWYQQKPEKAPKSLIYAASSLQSGVPSRFSGSGSGTDFTLTISSLQPEDFATYYCQQYDSDPITFGQGTRLEIK", "values": [
      {"measurement": "EC50", "setting": "[1]", "result": 240, "unit": "pM"},
      {"measurement": "binding result", "setting": "[6]", "result": "no binding (tested: 30 µg/mL)"}
    ]}
  ]
}
